This note sets out measurements from patent US20070123452A1, “Method of selecting novel immunosuppressant” (Astellas Pharma Inc., priority 2002, published 2007).

Data set [1] addresses T1, HDAC3, endogenous protein of the transfected cells, O15379.
T1 chain: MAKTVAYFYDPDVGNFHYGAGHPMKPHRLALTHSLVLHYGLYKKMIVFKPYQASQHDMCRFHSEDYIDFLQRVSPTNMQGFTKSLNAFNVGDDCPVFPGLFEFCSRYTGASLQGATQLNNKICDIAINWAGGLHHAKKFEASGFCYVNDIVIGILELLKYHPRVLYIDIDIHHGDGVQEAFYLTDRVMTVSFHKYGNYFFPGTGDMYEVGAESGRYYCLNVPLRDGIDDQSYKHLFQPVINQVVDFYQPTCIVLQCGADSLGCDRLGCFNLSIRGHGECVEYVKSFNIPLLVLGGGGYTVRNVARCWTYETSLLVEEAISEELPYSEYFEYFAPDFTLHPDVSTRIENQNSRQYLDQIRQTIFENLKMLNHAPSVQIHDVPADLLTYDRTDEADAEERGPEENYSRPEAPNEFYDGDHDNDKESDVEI

In data set [2] the target is N-CoR (nuclear receptor corepressor), endogenous protein of the transfected cells, O75376.
N-CoR (nuclear receptor corepressor), endogenous protein of the transfected cells, O75376, sequence (O75376 whole entry): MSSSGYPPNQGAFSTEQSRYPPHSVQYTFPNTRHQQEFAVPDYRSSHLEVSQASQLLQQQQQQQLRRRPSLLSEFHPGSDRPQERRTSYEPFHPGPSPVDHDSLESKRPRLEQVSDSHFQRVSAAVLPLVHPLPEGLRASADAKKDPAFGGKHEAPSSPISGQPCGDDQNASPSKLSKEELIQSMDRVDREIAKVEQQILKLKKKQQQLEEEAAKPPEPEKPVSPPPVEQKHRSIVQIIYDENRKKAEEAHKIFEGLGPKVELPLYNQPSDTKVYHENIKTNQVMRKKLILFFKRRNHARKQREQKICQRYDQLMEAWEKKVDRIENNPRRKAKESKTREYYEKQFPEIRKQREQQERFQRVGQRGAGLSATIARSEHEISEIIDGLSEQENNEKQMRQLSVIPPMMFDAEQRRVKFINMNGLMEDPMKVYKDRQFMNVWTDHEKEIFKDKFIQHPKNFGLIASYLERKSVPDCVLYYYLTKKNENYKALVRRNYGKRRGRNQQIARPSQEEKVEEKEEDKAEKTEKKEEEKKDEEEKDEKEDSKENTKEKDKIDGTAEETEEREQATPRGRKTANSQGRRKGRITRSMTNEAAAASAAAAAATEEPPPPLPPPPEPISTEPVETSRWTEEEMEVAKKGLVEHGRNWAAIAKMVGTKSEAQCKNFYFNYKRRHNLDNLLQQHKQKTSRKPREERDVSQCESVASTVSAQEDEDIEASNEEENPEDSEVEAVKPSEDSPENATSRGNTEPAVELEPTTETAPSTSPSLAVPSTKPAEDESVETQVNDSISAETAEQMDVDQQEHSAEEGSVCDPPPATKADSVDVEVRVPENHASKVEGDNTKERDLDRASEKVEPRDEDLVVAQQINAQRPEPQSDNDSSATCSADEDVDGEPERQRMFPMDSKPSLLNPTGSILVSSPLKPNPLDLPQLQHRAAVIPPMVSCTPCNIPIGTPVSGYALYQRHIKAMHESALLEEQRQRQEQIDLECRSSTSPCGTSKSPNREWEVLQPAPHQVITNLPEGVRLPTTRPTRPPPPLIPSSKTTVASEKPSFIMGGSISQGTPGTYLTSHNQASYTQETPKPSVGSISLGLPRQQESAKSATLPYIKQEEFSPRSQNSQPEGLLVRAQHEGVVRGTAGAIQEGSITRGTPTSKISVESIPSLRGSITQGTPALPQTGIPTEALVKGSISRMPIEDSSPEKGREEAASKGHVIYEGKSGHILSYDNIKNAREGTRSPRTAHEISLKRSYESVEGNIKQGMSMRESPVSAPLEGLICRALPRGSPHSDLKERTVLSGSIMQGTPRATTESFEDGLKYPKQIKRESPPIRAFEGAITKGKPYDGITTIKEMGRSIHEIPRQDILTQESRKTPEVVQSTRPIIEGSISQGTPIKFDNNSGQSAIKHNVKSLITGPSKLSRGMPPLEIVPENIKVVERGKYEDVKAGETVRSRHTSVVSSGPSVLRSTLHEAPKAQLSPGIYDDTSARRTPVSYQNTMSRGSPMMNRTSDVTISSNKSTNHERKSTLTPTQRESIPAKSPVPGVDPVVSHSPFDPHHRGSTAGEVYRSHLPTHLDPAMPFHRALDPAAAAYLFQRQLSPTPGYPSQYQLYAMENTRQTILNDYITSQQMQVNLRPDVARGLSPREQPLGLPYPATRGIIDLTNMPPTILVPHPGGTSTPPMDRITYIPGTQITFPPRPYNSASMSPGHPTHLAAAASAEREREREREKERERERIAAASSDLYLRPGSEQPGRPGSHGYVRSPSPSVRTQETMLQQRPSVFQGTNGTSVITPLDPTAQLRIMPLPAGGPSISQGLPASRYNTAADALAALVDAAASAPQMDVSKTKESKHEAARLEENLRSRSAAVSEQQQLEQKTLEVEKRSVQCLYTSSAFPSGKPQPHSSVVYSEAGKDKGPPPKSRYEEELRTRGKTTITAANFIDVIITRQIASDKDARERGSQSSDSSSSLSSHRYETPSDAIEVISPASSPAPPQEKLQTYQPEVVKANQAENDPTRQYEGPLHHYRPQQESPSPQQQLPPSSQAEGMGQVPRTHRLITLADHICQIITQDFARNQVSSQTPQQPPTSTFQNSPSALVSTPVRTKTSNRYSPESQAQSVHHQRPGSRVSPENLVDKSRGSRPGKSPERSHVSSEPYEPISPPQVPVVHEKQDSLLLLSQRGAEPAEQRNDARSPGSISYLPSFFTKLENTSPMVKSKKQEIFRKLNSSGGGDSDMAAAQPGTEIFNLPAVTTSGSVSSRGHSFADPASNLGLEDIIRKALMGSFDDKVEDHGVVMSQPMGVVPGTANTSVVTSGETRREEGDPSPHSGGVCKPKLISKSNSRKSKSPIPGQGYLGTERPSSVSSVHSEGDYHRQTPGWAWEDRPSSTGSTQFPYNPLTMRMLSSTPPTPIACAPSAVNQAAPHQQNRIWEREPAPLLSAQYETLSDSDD

B1: HDAC4 dominant negative variant (H863L) with C-terminal Flag (expressed from pEAK-HDAC4 (H863L)) (protein)
chain: MSSQSHPDGLSGRDQPVELLNPARVNHMPSTVDVATALPLQVAPSAVPMDLRLDHQFSLPVAEPALREQQLQQELLALKQKQQIQRQILIAEFQRQHEQLSRQHEAQLHEHIKQQQEMLAMKHQQELLEHQRKLERHRQEQELEKQHREQKLQQLKNKEKGKESAVASTEVKMKLQEFVLNKKKALAHRNLNHCISSDPRYWYGKTQHSSLDQSSPPQSGVSTSYNHPVLGMYDAKDDFPLRKTASEPNLKLRSRLKQKVAERRSSPLLRRKDGPVVTALKKRPLDVTDSACSSAPGSGPSSPNNSSGSVSAENGIAPAVPSIPAETSLAHRLVAREGSAAPLPLYTSPSLPNITLGLPATGPSAGTAGQQDTERLTLPALQQRLSLFPGTHLTPYLSTSPLERDGGAAHSPLLQHMVLLEQPPAQAPLVTGLGALPLHAQSLVGADRVSPSIHKLRQHRPLGRTQSAPLPQNAQALQHLVIQQQHQQFLEKHKQQFQQQQLQMNKIIPKPSEPARQPESHPEETEEELREHQALLDEPYLDRLPGQKEAHAQAGVQVKQEPIESDEEEAEPPREVEPGQRQPSEQELLFRQQALLLEQQRIHQLRNYQASMEAAGIPVSFGGHRPLSRAQSSPASATFPVSVQEPPTKPRFTTGLVYDTLMLKHQCTCGSSSSHPEHAGRIQSIWSRLQETGLRGKCECIRGRKATLEELQTVHSEAHTLLYGTNPLNRQKLDSKKLLGSLASVFVRLPCGGVGVDSDTIWNEVHSAGAARLAVGCVVELVFKVATGELKNGFAVVRPPGHHAEESTPMGFCYFNSVAVAAKLLQQRLSVSKILIVDWDVHHGNGTQQAFYSDPSVLYMSLLRYDDGNFFPGSGAPDEVGTGPGVGFNVNMAFTGGLDPPMGDAEYLAAFRTVVMPIASEFAPDVVLVSSGFDAVEGHPTPLGGYNLSARCFGYLTKQLMGLAGGRIVLALEGGHDLTAICDASEACVSALLGNELDPLPEKVLQQRPNANAVRSMEKVMEIHSKYWRCLQRTTSTAGRSLIEAQTCENEEAETVTAMASLSVGVKPAEKRPDEEPMEEEPPLDYKDDDDK
In the case of B1, the “HDAC activity with [3H]-labeled acetylated histone as a substrate” value in data set [1] and in data set [2] was “had decreased HDAC activity compared to wild-type HDAC4” in each case.

B2: HDAC4 dominant negative variant (H802K, H803L) with C-terminal Flag (expressed from pEAK-HDAC4 (H802K, H803L)) (protein)
chain: MSSQSHPDGLSGRDQPVELLNPARVNHMPSTVDVATALPLQVAPSAVPMDLRLDHQFSLPVAEPALREQQLQQELLALKQKQQIQRQILIAEFQRQHEQLSRQHEAQLHEHIKQQQEMLAMKHQQELLEHQRKLERHRQEQELEKQHREQKLQQLKNKEKGKESAVASTEVKMKLQEFVLNKKKALAHRNLNHCISSDPRYWYGKTQHSSLDQSSPPQSGVSTSYNHPVLGMYDAKDDFPLRKTASEPNLKLRSRLKQKVAERRSSPLLRRKDGPVVTALKKRPLDVTDSACSSAPGSGPSSPNNSSGSVSAENGIAPAVPSIPAETSLAHRLVAREGSAAPLPLYTSPSLPNITLGLPATGPSAGTAGQQDTERLTLPALQQRLSLFPGTHLTPYLSTSPLERDGGAAHSPLLQHMVLLEQPPAQAPLVTGLGALPLHAQSLVGADRVSPSIHKLRQHRPLGRTQSAPLPQNAQALQHLVIQQQHQQFLEKHKQQFQQQQLQMNKIIPKPSEPARQPESHPEETEEELREHQALLDEPYLDRLPGQKEAHAQAGVQVKQEPIESDEEEAEPPREVEPGQRQPSEQELLFRQQALLLEQQRIHQLRNYQASMEAAGIPVSFGGHRPLSRAQSSPASATFPVSVQEPPTKPRFTTGLVYDTLMLKHQCTCGSSSSHPEHAGRIQSIWSRLQETGLRGKCECIRGRKATLEELQTVHSEAHTLLYGTNPLNRQKLDSKKLLGSLASVFVRLPCGGVGVDSDTIWNEVHSAGAARLAVGCVVELVFKVATGELKNGFAVVRPPGKLAEESTPMGFCYFNSVAVAAKLLQQRLSVSKILIVDWDVHHGNGTQQAFYSDPSVLYMSLHRYDDGNFFPGSGAPDEVGTGPGVGFNVNMAFTGGLDPPMGDAEYLAAFRTVVMPIASEFAPDVVLVSSGFDAVEGHPTPLGGYNLSARCFGYLTKQLMGLAGGRIVLALEGGHDLTAICDASEACVSALLGNELDPLPEKVLQQRPNANAVRSMEKVMEIHSKYWRCLQRTTSTAGRSLIEAQTCENEEAETVTAMASLSVGVKPAEKRPDEEPMEEEPPLDYKDDDDK
B2: the “HDAC activity with [3H]-labeled acetylated histone as a substrate” value in data set [1] and in data set [2] was “had decreased HDAC activity compared to wild-type HDAC4” each time.
